In patent publication US20260115255A1 (CYTUNE PHARMA, published 2026):
Numbering of substitutions follows the chain as printed. Each block holds one binder with its values, some of them ahead of it.

Tests used:
FcγRIIIa F158 = target: T1, FcγRIIIa F158 (human, UniProt P08637 17-208); experiment: SPR; ratio of affinity (1/Kd) for FcγRIIIa F158 to affinity for FcγRIIb
T1 construct: Captured on the chip through an anti-His tag antibody; construct not described; also called hFcγRIIIaF158; CD16a F158
Protocol: (§1) SPR experiments were performed on a Biacore 8K (Cytiva, Chicago, IL, USA), using CM5 sensor chips (Cytiva) with an immobilization using THE His tag antibodies (Genscript). FcγRIIIa V158, FcγRIIIa F158 or FcγRIIb protein were used for capture with a contact time of 30 sec at a flow rate of […] in a 1×HBS-EP+ running buffer. Association/dissociation rates were measured for each tested immunocytokine at a flow rate of 30 μl/min with concentration serial dilution in a suitable range with an association time/dissociation time of 300 s/300 s except for constructs with DLE and DE with and without afucosylation, where association/dissociation time of 120 s/1200 s was applied.

FcγRIIIa V158 = target: T2, FcγRIIIa V158 (human, UniProt P08637 17-208); experiment: SPR; ratio of affinity (1/Kd) for FcγRIIIa V158 to affinity for FcγRIIb
T2 construct: Captured on the chip through an anti-His tag antibody, so it carries a His tag; construct not described; also called hFcγRIIIaV158; FcγIIIa V158
Protocol: as §1

A/I (F158) (FcγRIIIa F158): 20.6 | A/I (V158) (FcγRIIIa V158): 83.8
B1: hCl1a (antibody)
chain 1: not shown
chain 2: DIQMTQSPSSLSASVGDRVTITCRASEDIYSNLAWYQQKPGKAPKLLIFSVKRLQDGVPSRFSGSGSGTDFTLTISSLQPEDFATYYCLQGSNFPLTFGQGTKVEIKRTVAAPSVFIFPPSDEQLKSGTASVVCLLNNFYPREAKVQWKVDNALQSGNSQESVTEQDSKDSTYSLSSTLTLSKADYEKHKVYACEVTHQGLSSPVTKSFNRGEC

A/I (F158) (FcγRIIIa F158): 9370 | A/I (V158) (FcγRIIIa V158): 13700
B2: hCl1a DLE-RLI DANA afuc (other)
heavy 1: QVQLVQSGAEVKKPGASVKVSCKASGYTFTDYAMHWVRQAPGQRLEWMGWINTYTGKPTYAQKFQGRVTITRDTSASTAYMELSSLRSEDTAVYYCARAVFYGYTMDAWGQGTLVTVSSASTKGPSVFPLAPSSKSTSGGTAALGCLVKDYFPEPVTVSWNSGALTSGVHTFPAVLQSSGLYSLSSVVTVPSSSLGTQTYICNVNHKPSNTKVDKKVEPKSCDKTHTCPPCPAPELLGGPDVFLFPPKPKDTLMISRTPEVTCVVVDVSHEDPEVKFNWYVDGVEVHNAKTKPREEQYNSTYRVVSVLTVLHQDWLNGKEYKCKVSNKALPLPEEKTISKAKGQPREPQVYTLPPSRDELTKNQVSLWCLVKGFYPSDIAVEWESNGQPENNYKTTPPVLDSDGSFFLYSKLTVDKSRWQQGNVFSCSVMHEALHNHYTQKSLSLSPGITCPPPMSVEHADIWVKSYSLYSRERYICNSGFKRKAGTSSLTECVLNKATNVAHWTTPSLKCIRDPALVHQRPAPPSGGSGGGGSGGGSGGGGSGGNWVNVISDLKKIEDLIQSMHIDATLYTESDVHPSCKVTAMKCFLLELQVISLESGDASIHATVEALIILANNSLSSNAQVTESGCKECEELEEKNIKEFLQSFVHIVQMFINTS
heavy 2: QVQLVQSGAEVKKPGASVKVSCKASGYTFTDYAMHWVRQAPGQRLEWMGWINTYTGKPTYAQKFQGRVTITRDTSASTAYMELSSLRSEDTAVYYCARAVFYGYTMDAWGQGTLVTVSSASTKGPSVFPLAPSSKSTSGGTAALGCLVKDYFPEPVTVSWNSGALTSGVHTFPAVLQSSGLYSLSSVVTVPSSSLGTQTYICNVNHKPSNTKVDKKVEPKSCDKTHTCPPCPAPELLGGPDVFLFPPKPKDTLMISRTPEVTCVVVDVSHEDPEVKFNWYVDGVEVHNAKTKPREEQYNSTYRVVSVLTVLHQDWLNGKEYKCKVSNKALPLPEEKTISKAKGQPREPQVYTLPPSRDELTKNQVSLSCAVKGFYPSDIAVEWESNGQPENNYKTTPPVLDSDGSFFLVSKLTVDKSRWQQGNVFSCSVMHEALHNHYTQKSLSLSPG
light: B1 chain 2
modifications: Afucosylated Fc N-glycan (N297, both heavy chains); the letters cannot carry it.
notes: Same chains as m4, afucosylated; copies: 1 + 1 + 2

A/I (F158) (FcγRIIIa F158): 380 | A/I (V158) (FcγRIIIa V158): 1010
B3: hCl1a AAA-RLI DANA afuc (other)
heavy 1: B2 heavy 1 with D241S, S300A, L332A, E334I, E335A, K336A
heavy 2: B2 heavy 2 with D241S, S300A, L332A, E334I, E335A, K336A
light: B1 chain 2
modifications: Afucosylated Fc N-glycan (N297, both heavy chains); the letters cannot carry it.
notes: Same chains as m6, afucosylated; copies: 1 + 1 + 2

A/I (F158) (FcγRIIIa F158): 244 | A/I (V158) (FcγRIIIa V158): 691
B4: hCl1a AAA-RLI DANA (other)
heavy 1: B2 heavy 1 with D241S, S300A, L332A, E334I, E335A, K336A
heavy 2: B2 heavy 2 with D241S, S300A, L332A, E334I, E335A, K336A
light: B1 chain 2
notes: See note of m4; also called SOT202-AAA-DANA; copies: 1 + 1 + 2

A/I (F158) (FcγRIIIa F158): 228 | A/I (V158) (FcγRIIIa V158): 464
B5: hCl1a DLE-RLI DANA (other)
heavy 1: B2 heavy 1
heavy 2: B2 heavy 2
light: B1 chain 2
notes: also called SOT202-DLE-DANA; copies: 1 + 1 + 2
